Measurements as given in PMC3781937 (Molecular microbiology, 2013).

T1: YaaT (His6-SUMO tag removed, in the co-purified complex) (Bacillus subtilis, UniProt P37541 1-275)
T1 sequence (looked up): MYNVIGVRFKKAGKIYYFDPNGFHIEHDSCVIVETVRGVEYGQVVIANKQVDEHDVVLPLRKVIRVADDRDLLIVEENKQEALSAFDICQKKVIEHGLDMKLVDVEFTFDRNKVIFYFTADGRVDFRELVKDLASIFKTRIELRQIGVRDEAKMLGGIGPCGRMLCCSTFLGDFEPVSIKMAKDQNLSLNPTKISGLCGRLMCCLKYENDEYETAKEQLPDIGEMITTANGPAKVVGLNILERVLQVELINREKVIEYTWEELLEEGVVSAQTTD

T2: T18-Spo0F (Bacillus subtilis, UniProt P06628 1-124)
T2 sequence (looked up): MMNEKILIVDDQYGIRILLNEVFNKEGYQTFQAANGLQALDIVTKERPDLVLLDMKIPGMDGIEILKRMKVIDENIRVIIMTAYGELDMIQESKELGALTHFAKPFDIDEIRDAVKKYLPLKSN

B1: YlbF (GST tag removed, in the co-purified complex) (natural protein, Bacillus subtilis, UniProt O34412 1-149, looked up)
chain: MYATMESVRLQSEAQQLAEMILQSETAENYRNCYKRLQEDEEAGRIIRSFIKIKEQYEDVQRFGKYHPDYREISRKMREIKRELDLNDKVADFKRAENELQSILDEVSVEIGTAVSEHVKVPTGNPYFDGLSSCGGGCGSGGSCGCKVS
B2: YmcA (GST tag removed) (natural protein, Bacillus subtilis, UniProt O31779 1-143, looked up)
chain: MTLYSKKDIVQQARNLAKMISETEEVDFFKRAEAQINENDKVSTIVNQIKALQKQAVNLKHYEKHEALKQVEAKIDALQEELEEIPVIQEFRDSQMEVNDLLQLVAHTISNQVTNEIITSTGGDLLKGETGSKVKHSNNSCSL
B3: YmcA-T25 (natural protein, Bacillus subtilis, UniProt O31779 1-143, looked up)
chain: B2 chain

Legend:
[1] = target: T1, YaaT (His6-SUMO tag removed, in the …); experiment: SEC
[2] = target: B1; experiment: SEC
two-hybrid = target: the molecule itself; experiment: two-hybrid
T18-Spo0F = target: T2, T18-Spo0F; experiment: two-hybrid

B1: binds [1].

B2 was tested, and the “stoichiometry N” value [2] was 2.2 fold and the “stoichiometry N” value [1] was 2.2 fold.

With B3 the “β-galactosidase activity, ratio above the T18–T25 negative control” value (two-hybrid) was 48.3 ratio above the T18–T25 negative control and the “β-galactosidase activity, ratio above the T18–T25 negative control” value (T18-Spo0F) was 11.3 ratio above the T18–T25 negative control.
